According to publication PMC7504102:

Target: StrepHA-SGFP2 (control)
Assay: co-IP; co-IP/HiBiT assay: SGFP2-fused proteins immunoprecipitated with anti-GFP pAb from HEK293 or HEK293 ALG-2KO lysates (with or without co-expressed FLAG-ALG-2); HKM, 1% Nonidet P-40, 10 mM NEM, 10 μM CaCl2; co-precipitated HiBiTHA-SARAF read by lytic HiBiT assay with LgBiT, normalised by …

relative interaction activity (WT expressed as 100%): < 0.3%
B1: full-length HiBiTHA-SARAF (WT) (natural protein)
chain: WNDPDRMLLRDVKALTLHYDRYTTSRRLDPIPQLKCVGGTAGCDSYTPKVIQCQNKGWDGYDVQWECKTDLDIAYKFGKTVVSCEGYESSEDQYVLRGSCGLEYNLDYTELGLQKLKESGKQHGFASFSDYYYKWSSADSCNMSGLITIVVLLGIAFVVYKLFLSDGQYSPPPYSEYPPFSHRYQRFTNSAGPPPPGFKSEFTGPQNTGHGATSGFGSAFTGQQGYENSGPGFWTGLGTGGILGYLFGSNRAATPFSDSWYYPSYPPSYPGTWNRAYSPLHGGSGSYSVCSNSDTKTRTASGYGGTRRR
